Five sequences from patent US20230054274A1, “PEPTIDE-MHC COMPLEXES” (priority 2019, published 2023) can be followed below.

In this assay the target is HLA-E*01:03 (Homo sapiens, UniProt P13747). The assay can be described thus: Stability of native peptide-HLA-E complexes by loss of ILT2 binding over time (SPR).
Chain of HLA-E*01:03 (P13747 with tags, fused parts or gaps): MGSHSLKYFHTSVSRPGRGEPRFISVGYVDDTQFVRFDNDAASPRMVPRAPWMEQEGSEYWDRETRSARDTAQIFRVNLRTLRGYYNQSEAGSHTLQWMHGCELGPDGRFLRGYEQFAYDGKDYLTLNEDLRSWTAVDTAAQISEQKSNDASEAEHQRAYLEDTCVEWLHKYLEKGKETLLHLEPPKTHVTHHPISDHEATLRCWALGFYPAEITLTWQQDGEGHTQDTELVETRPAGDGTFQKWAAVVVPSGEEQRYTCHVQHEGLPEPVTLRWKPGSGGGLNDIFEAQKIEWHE
Chain of HLA-E*01:03 (P61769 with tags, fused parts or gaps partner): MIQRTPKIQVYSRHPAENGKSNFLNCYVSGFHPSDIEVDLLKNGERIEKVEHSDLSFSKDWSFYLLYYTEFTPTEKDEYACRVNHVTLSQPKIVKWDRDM

For the sequence “ILPSDAPVL [MTB peptide known to be presented by HLA-E]”, the “T 1/2 (h) (HLA-E*01:03)” value ([…], half-life by ILT2 binding) turned out to be 0.70 h.

Regarding “RMYSPVSIL [HIV (Gag 275) peptide known to be presented by HLA-E]”, the “T 1/2 (h) (HLA-E*01:03)” value ([…], half-life by ILT2 binding) is given as 0.27 h.

VMAPRTLIL: the “T 1/2 (h) (HLA-E*01:03)” value ([…], half-life by ILT2 binding) is given as 3.20 h.

For VMAPRTLVL, for the setting “native unmodified peptide in complex with HLA-E*01:03, half-life by ILT2 binding”, the “T 1/2 (h) (HLA-E*01:03)” value was 3.00 h.

Consider “VMATRRNVL [MTB peptide known to be presented by HLA-E]”, for which the “T 1/2 (h) (HLA-E*01:03)” value ([…], half-life by ILT2 binding) worked out at 0.57 h.
